Experimental data from patent publication US20040002450A1, “Y17 - isolated molecules comprising epitopes containing sulfated moieties, antibodies to such epitopes, and uses thereof” (priority 2000, published 2004).

How the values were obtained:
primary leukemia cells = assay: FACS analysis of binding to primary leukemia cells of patients; set-up: species or system human
Protocol: Analysis of binding of scFv Y1 antibodies and anti-CD162 antibodies to diseased cells also illustrates that scFv Y1 has binding characteristics different from those of anti-CD-162 antibodies. […] Table F). Y1 binds to the leukemic cells in 10 of 12 samples. In contrast, anti-CD162 bound only 5 out of 12 samples. […] Thus, it may be concluded that, in leukemic cells, scFv Y1 binds to a ligand other than that recognized by anti-CD162.
Samples provided from hospitals. Patients sample 30 μl/tube. Add 5 μl/tube of CD33-APC (for AML) or CD19-APC (for B-CLL) or CD38-APC (for Multiple Myeloma). Add 5 μl/tube of CD45-PerCp and 5 μl of scFv-Y1 or control scFv-N31 or CD162-PE (KPL1). Incubate tubes 30 minutes at 4° C. with low shaking. Wash by adding 2 ml PBS and spin 5 minutes at 1200 rpm. Discard supernatant.
For a one step assay continue with the lysis step:
Add 500 μl BD Lysine solution diluted 1:10 with ddH2O (300 μl to patient sample). Vortex at high speed and incubate 12 minutes at 4° C. Wash as above. Discard supernatant. And add 500 μl PBS. The samples are read in the FACS using blood sample acquisition setup according to international standards.
For two or more assays: working buffer is PBS+1% BSA+0.05% sodium azide. Incubations and wash as above.
Lysis of the red blood cells is the final step in the assay, followed by resuspension with 500 μl PBS.

[1] = test system: glycocalicin, platelet lysate, KG-1 cell lysate, Raji cell lysate; assay: Western blot on glycocalicin and cell lysates; type: binding, human
Protocol: Antibodies against GPIbα (CD42b) recognize platelet lysate and glycocalicin and but not KG-1 cell lysate (a Y1 binding positive myeloid cell line) or Raji cell lysate (a B cell line that is negative for Y1 binding at concentrations at which KG-1 cells are positive for Y1 binding). […] (FIG. 20).
The nitrocellulose membrane was blocked using 5% skim milk for one hour at room temperature. The membrane was then washed 3 times for 5 minutes each with 0.05% Tween 20 in PBS at room temperature. The membrane was incubated with 5 μg/ml Y1-biotin (or 181-biotin) in 2% skim milk in PBS for one hour at room temperature. The membrane was then washed 3 times for 5 minutes each with cold 0.05% Tween 20 in PBS in the cold room (about 4 to about 10° C.). The membrane was then incubated in the cold room with a 1:1000 dilution of SAV-HRP (streptavidin-HRP) (at a final concentration of […]) in 2% skim milk, 0.05% Tween. The dilution was carried out at room temperature (about 25° C.), then the diluted SAV-HRP was cooled on ice for 10-15 minutes before use. The incubation was carried out for 1 hour with gentle shaking. After the incubation with SAV-HRP, the membrane was washed, as above. The membrane was then incubated with Super Signal mixture (Pierce) for 5 minutes as directed in the commercial protocol, then excess solution was dried. […]

glycocalicin = biological target: T1, glycocalicin (Homo sapiens, UniProt P07359); assay: Western blot on natural versus E. coli recombinant glycocalicin; type: binding
T1 construct: GC, amino acid 1 to amino acid 493 of GPIbα; made in house; host or cells: E. coli BL21 (DE3), total cell lysate
Protocol: The DNA fragment encoding for glycocalicin (GC, amino acid 1 to amino acid 493 of GPIbα) was cloned into an IPTG inducible prokaryotic vector cassette. E. coli (BL21 DE3) cells harboring the newly constructed plasmid were grown at 37° C. to O.D. 0.7-0.8, than at 37° C. for 3 hours for in the presence of IPTG for induction
SDS-polyacrylamide gel loaded either with semi-purified human platelet derived glycocalicin (“GC”) or with E. coli cell lysates (“total”) derived from induced and non-induced cells were analyzed. Western blot analysis was performed with biotinylated Y1-scFv, polyclonal rabbit anti-human glycocalicin antibody, commercially available mouse anti-human CD42 monoclonal antibody (SZ2 Immunotech, PM640 Serotec, HIP 1 Pharmigen, AN51 DAKO), and polyclonal antibody against the N-terminus of GPIbα (Sc-7071, Santa Cruz).

B1: Y1 scFv: fully human scFv clone binding platelets and myelogenous leukemia cells; SEQ ID NO: 25, heavy chain CDR3 SEQ ID NO: 8 (protein, listed as Homo sapiens)
scFv: MKYLLPTAAAGLLLLAAQPAMAEVQLVESGGGVVRPGGSLRLSCAASGFTFDDYGMSWVRQAPGKGLEWVSGINWNGGSTGYADSVKGRFTISRDNAKNSLYLQMNSLRAEDTAVYYCARMRAPVIWGQGTLVTVSRGGGGSGGGGSGGGGSSELTQDPAVSVALGQTVRITCQGDSLRSYYASWYQQKPGQAPVLVIYGKNNRPSGIPDRFSGSSSGNTASLTITGAQAEDEADYYCNSRDSSGNHVVFGGGTKLTVLGAAAEQKLISEEDLNGAA
leukemia patient samples whose leukemic cells are bound (primary leukemia cells; 12 patient samples, FACS): 10 of 12
% Positive (primary leukemia cells; AML patients): 80%
Number Positive (primary leukemia cells; AML patients): 60/75
% Negative (primary leukemia cells; B-ALL, Bone Marrow): 67%
% Positive (primary leukemia cells; B-ALL, Bone Marrow): 33%
Number Positive (primary leukemia cells; B-ALL, Bone Marrow): 3/9
% Negative (primary leukemia cells; B-CLL, Peripheral Blood): 26%
% Positive (primary leukemia cells; B-CLL, Peripheral Blood): 74%
Number Positive (primary leukemia cells; B-CLL, Peripheral Blood): 17/23
% Positive (primary leukemia cells; B-Leukemia patients): 67%
Number Positive (primary leukemia cells; B-Leukemia patients): 29/43
% Negative (primary leukemia cells; B-Lymphoma, Peripheral Blood): 38%
% Positive (primary leukemia cells; B-Lymphoma, Peripheral Blood): 62%
Number Positive (primary leukemia cells; B-Lymphoma, Peripheral Blood): 5/8
% Positive (primary leukemia cells; Multiple Myeloma patients): 100%
Number Positive (primary leukemia cells; Multiple Myeloma patients): 16/16
% Negative (primary leukemia cells; Pre-B-ALL, Bone Marrow): 0%
% Positive (primary leukemia cells; Pre-B-ALL, Bone Marrow): 100%
Number Positive (primary leukemia cells; Pre-B-ALL, Bone Marrow): 3/3
recognition of glycocalicin, platelet lysate, KG-1 and Raji cell lysate [1]: recognized both glycocalicin, platelet lysate, and KG-1 cells, but not Raji cell extract
recognition of natural human platelet derived and bacterial recombinant glycocalicin (glycocalicin): recognized the natural human-derived glycocalicin, but did not recognize the bacterial derived recombinant platelet glycocalicin
